Where “and” joins values, the source holds several entries; their conditions need not be identical. Equal entries are not always repeated. Where two headings read alike, the source gives them in different places.
Key:
[1] = target: HLA-A*02:01 tetramer (human); test: peptide exchange on HLA-A*02:01 tetramer, entering peptide 20 µM, 4 h; competitor: exiting peptide ILKEKK(DNP)VHGV; capture on anti HLA-ABC beads, anti-DNP FITC, flow cytometry
[2] = target: T1, H-2 Kb tetramer (murine), P01901
T1 chain: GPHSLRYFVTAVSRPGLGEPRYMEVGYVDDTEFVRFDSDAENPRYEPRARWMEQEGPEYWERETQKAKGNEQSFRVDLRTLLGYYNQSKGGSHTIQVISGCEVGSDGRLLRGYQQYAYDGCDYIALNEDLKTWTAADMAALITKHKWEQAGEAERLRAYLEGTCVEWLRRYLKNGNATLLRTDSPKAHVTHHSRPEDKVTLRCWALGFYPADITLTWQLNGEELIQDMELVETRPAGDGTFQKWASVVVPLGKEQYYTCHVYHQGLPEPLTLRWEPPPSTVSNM

[3] = target: T1, H-2 Kb tetramer (murine), P01901; test: peptide exchange on H-2 Kb BV421 tetramer, reference peptide 20 µM, glycyl-methionine, 4 h; competitor: exiting peptide TFQRK(DNP)PAAF; bead sandwich immunoassay, flow cytometry
[4] = target: T1, H-2 Kb tetramer (murine), P01901; test: peptide exchange on H-2 Kb PE tetramer, reference peptide 20 µM, glycyl-methionine, 4 h; bead sandwich immunoassay, flow cytometry
[5] = target: T1, H-2 Kb tetramer (murine), P01901; test: peptide exchange on H-2 Kb PE tetramer, reference peptide 2 µM, glycyl-methionine, 4 h; competitor: exiting peptide TFQRK(DNP)PAAF; bead sandwich immunoassay, flow cytometry
[6] = target: T1, H-2 Kb tetramer (murine), P01901; test: peptide exchange on H-2 Kb APC tetramer, reference peptide 20 µM, glycyl-methionine, 4 h; competitor: exiting peptide TFQRK(DNP)PAAF; bead sandwich immunoassay, flow cytometry
[7] = target: T1, H-2 Kb tetramer (murine), P01901; test: peptide exchange on H-2 Kb BV421 tetramer, reference peptide 2 µM, glycyl-methionine, 4 h; competitor: exiting peptide TFQRK(DNP)PAAF; bead sandwich immunoassay, flow cytometry
[8] = target: T1, H-2 Kb tetramer (murine), P01901; test: peptide exchange on H-2 Kb APC tetramer, reference peptide 2 µM, glycyl-methionine, 4 h; competitor: exiting peptide TFQRK(DNP)PAAF; bead sandwich immunoassay, flow cytometry
[9] = target: HLA-A*24:02 tetramer (human)
[10] = target: HLA-A*02:01 tetramer (human)
[11] = target: HLA-A*24:02 tetramer (human); test: peptide exchange on HLA-A*24:02 tetramer, competing peptide 20 µM, 4 h; competitor: exiting peptide TFQRK(DNP)PAAF; capture on anti HLA-ABC beads, anti-DNP FITC, flow cytometry
[12] = remark: other sources report otherwise

B1: … (SEQ ID NO: 42) (peptide)
peptide: RIKDFLRNL
modifications: not checked
With B1 the % peptide exchange [1] was 34%.

B2: … (SEQ ID NO: 47) (peptide)
peptide: SYVPSAEQI
modifications: not checked
With B2 the % peptide exchange [1] was 25%.

B3: TFQRK(DNP)PAAF (SEQ ID NO: 16) (peptide)
peptide: TFQRKPAAF
modifications: not checked
For B3, the % peptide exchange (loss of the exiting peptide without entering peptide) [2] was 16% and 13.3% and 30.4%.

B4: … (SEQ ID NO: 38) (peptide)
peptide: SLPPPGTRV
modifications: not checked
B4 gave a % peptide exchange [1, 12] of 86.6%.

B5: … (SEQ ID NO: 33) (peptide)
peptide: FLYDDNQRV
modifications: not checked
With B5 the % peptide exchange [1] was 91.2%.

B6: … (SEQ ID NO: 44) (peptide)
peptide: CSLWNGPHL
modifications: not checked
Work on B6 yielded a % peptide exchange [1] of 55.2%.

B7: reference entering peptide (SIYRYYGL (SEQ ID NO: 59)) (peptide)
peptide: SIYRYYGL
modifications: not checked
B7 gave a % peptide exchange [3] of 97.3%, a % peptide exchange [4] of 100% and a % peptide exchange [5] of 92.7%. For the same binder, the % peptide exchange [6] was 99.1%, the % peptide exchange [7] was 90.6% and the % peptide exchange [8] was 97.1%.

B8: … (SEQ ID NO: 34) (peptide)
peptide: AVLDGLLSL
modifications: not checked
B8 was tested, and the % peptide exchange [1] was 90.7%.

B9: … (SEQ ID NO: 35) (peptide)
peptide: WMHKVPASL
modifications: not checked
B9 gave a % peptide exchange [1] of 87.9%.

B10: … (SEQ ID NO: 45) (peptide)
peptide: EYILSLEEL
modifications: not checked
Binder B10 has a % peptide exchange [1] of 24.2%.

B11: … (SEQ ID NO: 41) (peptide)
peptide: IMQIMPYGC
modifications: not checked
B11 showed a % peptide exchange [1] of 59.9%.

B12: … (SEQ ID NO: 43) (peptide)
peptide: ALLAVGATK
modifications: not checked
B12 was tested, and the % peptide exchange [1] was 25.7%.

B13: … (SEQ ID NO: 28) (peptide)
peptide: LNMADKKET
modifications: not checked
B13 showed a % peptide exchange [9] of 10.3%.

B14: … (SEQ ID NO: 36) (peptide)
peptide: CINGVCWTV
modifications: not checked
In the case of B14, the % peptide exchange [10] is reported as 85.3%.

B15: … (SEQ ID NO: 18) (peptide)
peptide: AMAPRTLLL
modifications: not checked
B15 gave a % peptide exchange [11] of 81.6%.

B16: HLA-A*02:01 Reference peptide, … (SEQ ID NO: 5) (peptide)
peptide: YLLEFTPPV
modifications: not checked
B16 gave a % peptide exchange [1] of 91.9%.

B17: … (SEQ ID NO: 49) (peptide)
peptide: IRLRPGGKK
modifications: not checked
Binder B17 has a % peptide exchange [10] of 25%.

B18: … (SEQ ID NO: 48) (peptide)
peptide: ATVQGQNLK
modifications: not checked
B18 showed a % peptide exchange [1] of 27.9%.

B19: … (SEQ ID NO: 37) (peptide)
peptide: WMHHNMDLI
modifications: not checked
B19 gave a % peptide exchange [1] of 89.2%.

B20: … (SEQ ID NO: 31) (peptide)
peptide: RYMRWTYRF
modifications: not checked
For B20, the % peptide exchange [9] was 101%.

B21: … (SEQ ID NO: 46) (peptide)
peptide: ALALEVGEL
modifications: not checked
B21 showed a % peptide exchange [1] of 85.1%.

B22: … (SEQ ID NO: 23) (peptide)
peptide: GLADQLIHL
modifications: not checked
B22 showed a % peptide exchange [10] of 91.4%.

B23: … (SEQ ID NO: 25) (peptide)
peptide: GYSLKLSKL
modifications: not checked
Work on B23 yielded a % peptide exchange [9] of 37.9%.

B24: … (SEQ ID NO: 39) (peptide)
peptide: LTLGEFLKL
modifications: not checked
Binder B24 has a % peptide exchange [1] of 43.6%.

B25: … (SEQ ID NO: 40) (peptide)
peptide: IMQLMPFGC
modifications: not checked
In the case of B25, the % peptide exchange [1, 12] is reported as 40.9%.

B26: … (SEQ ID NO: 30) (peptide)
peptide: RVRAYTYSK
modifications: not checked
In the case of B26, the % peptide exchange [9] is reported as 10.3%.

B27: … (SEQ ID NO: 24) (peptide)
peptide: GLAVVTHGL
modifications: not checked
Work on B27 yielded a % peptide exchange [1] of 91%.

B28: … (SEQ ID NO: 27) (peptide)
peptide: IYSTVASSL
modifications: not checked
With B28 the % peptide exchange [9] was 101%.

B29: … (SEQ ID NO: 21) (peptide)
peptide: FLSELTQQL
modifications: not checked
Work on B29 yielded a % peptide exchange [11] of 23.6%.

From patent US12044680
